Results from patent US20080312158A1 (University of California, published 2008).

Biological target: the molecule itself
Assay: aggregation assay of S2 cells transfected with fasciclin IV (homophilic adhesion)
Source text: To ask whether fasciclin IV can function as a homophilic cell adhesion molecule, the fasciclin IV cDNA with the complete ORF was placed under the control of the inducible metallothionein promoter (Bunch et al. 1988). transfected into S2 cells, and assayed for its ability to promote adhesion in normally non-adhesive S2 cells. Following induction with copper, fasciclin IV was synthesized in these S2 cells as shown by Western blot analysis and cell surface staining of induced S2 cells with the polyclonal antiserum described above.
A restriction fragment containing the full length fasciclin IV cDNA was cloned into pRmHa-3 (Bunch et al, 1988) and co-transformed into Drosophila S2 cells (Schneider, 1972) with the plasmid pPC4 (Jokerst et al., 1989), which confers a-amanitin resistance. S2 cells were transformed using the Lipofectin Reagent and recommended protocol (BRL) with minor modifications. All other S2 cell manipulations are essentially as described (Snow et al., 1989), including adhesion assays. Fasciclin IV expression in transformed cell lines was induced for adhesion assays and histology by adding CuSO₄ to 0.7 mM and incubating for at least 48 hrs. […] Amount of protein per lane in each sample loaded: fasciclin IV protein, ˜5 ng; S2 cell membranes, […]; grasshopper membranes […]. […]

B1: Grasshopper fasciclin IV (now called G-Semaphorin I) (other)
chain: WVNDVSPKMYVQFGEERVQRFLGNESHKDHFKLLEKDHNSLLVGARNIVYNISLRDLTEFTEQRIEWHSSGAHRELCYLKGKSEDDCQNYIRVLAKIDDDRVLICGTNAYKPLCRHYALKDGDYVVEKEYEGRGLCPFDPDHNSTAIYSEGQLYSATVADFSGTDPLIYRGPLRTERSDLKQLNAPNFVNTMEYNDFIFFFFRETAVEYINCGKAIYSRVARVCKHDKGGPHQGGDRWTSFLKSRLNCSVPGDYPFYFNEIQSTSDIIEGNYGGQVEKLIYGVFTTPVNSIGGSAVCAFSMKSILESFDGPFKEQETMNSNWLAVPSLKVPEPRPGQCVNDSRTLPDVSVNFVKSHTLMDEAVPAFFTRPILIRISLQYRFTKIAVDQQVRTPDGKAYDVLFIGTDDGKVIKALNSASFDSSDTVDSVVIEELQVLPPGVPVKNLYVVRMDGDDSKLVVVSDDEILAIKLHRCGSDKITNCRECVSLQDPYCAWDNVELKCTAVGSPDWSAGKRRFIQNISLGEHKACGGRPQTEIVASPVPTQPTTKSSGDPVHSIHQAEFEPEIDNEIVIGVDDSNVIPNTLAEINHAGSKLPSSQEKLPIYTAETLTIAIVTSCLGALVVGFISGFLFSRRCRGEDYTDMPFPDQRHQLNRLTEAGLNADSPYLPPCANNKAAINLVLNVPPKNANGKNANSSAENKPIQKVKKTYI
modifications: N-linked oligosaccharides (shown by N-Glycanase treatment)
notes: also called 6F8 antigen; grasshopper Semaphorin I
binding result: no binding
